Source: US20240052033A1 (Molecular Partners, published 2024)

Experiments:
[1] = target: T1, human CD3 on primary human pan-T cells (human, UniProt P07766 23-207; P09693 23-182; P04234 22-171; P20963 22-164); assay: Mirrorball laser scanning imaging cytometry on primary human pan-T cells with 600 µM HSA; detection with anti-penta-His Alexa Fluor 488; Median (FL-2 Mean Intensity) [B]
T1 construct: whole, on cells; Native CD3 complex (pairs εγ, εδ, ζζ) on T cells isolated from human PBMCs; it is associated with the T cell receptor on the cells; also called CD3 on Pan-T cells; CD3 on T cells
T1 sequence (P07766 23-207, chain 1 of 4): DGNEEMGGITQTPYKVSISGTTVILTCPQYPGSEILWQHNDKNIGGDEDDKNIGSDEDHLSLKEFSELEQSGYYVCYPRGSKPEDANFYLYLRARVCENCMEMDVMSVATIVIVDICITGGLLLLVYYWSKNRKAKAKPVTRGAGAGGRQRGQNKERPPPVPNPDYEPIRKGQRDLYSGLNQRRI
T1 sequence (P09693 23-182, chain 2 of 4): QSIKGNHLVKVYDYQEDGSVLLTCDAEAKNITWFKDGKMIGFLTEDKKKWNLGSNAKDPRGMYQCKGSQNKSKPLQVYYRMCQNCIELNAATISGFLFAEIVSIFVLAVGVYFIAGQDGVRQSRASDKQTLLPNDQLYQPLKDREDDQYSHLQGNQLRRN
T1 sequence (P04234 22-171, chain 3 of 4): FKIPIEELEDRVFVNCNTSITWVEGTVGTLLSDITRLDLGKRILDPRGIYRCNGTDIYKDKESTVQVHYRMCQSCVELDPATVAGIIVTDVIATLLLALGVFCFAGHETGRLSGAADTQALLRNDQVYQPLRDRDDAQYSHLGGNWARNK
T1 sequence (P20963 22-164, chain 4 of 4): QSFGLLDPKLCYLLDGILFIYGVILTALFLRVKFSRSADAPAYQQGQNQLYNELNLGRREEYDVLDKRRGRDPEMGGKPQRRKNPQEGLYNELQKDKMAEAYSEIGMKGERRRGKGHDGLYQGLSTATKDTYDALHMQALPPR
Procedure: The determination of CD3 binding was performed with primary human T cells using Mirrorball laser scanning imaging cytometry. Therefore, primary T cells were isolated from human peripheral blood mononuclear cells (PBMCs) using a pan-T cell purification kit (Miltenyi Biotec). […] To generate the tri-specific TCE proteins, DARPin® protein #1, DARPin® protein #2, DARPin® protein #3 and DARPin® protein #4, respectively, was subcloned and expressed as described above into a derivative of the pQE30 (Qiagen) expression vector, encoding an N-terminal His-tag, followed by two different TAA-specific ankyrin repeat domains (in the order TAA2- and TAA3-specific, respectively), and then followed by one of the CD3-specific ankyrin repeat domains of the invention. […] After washing, CD3 binding was detected by 1:100-diluted anti-penta-His Alexa Fluor 488 antibody (Qiagen). […] Median of mean fluorescence intensities of Alexa Fluor 488 binding on far-red counterstained cells were measured by Mirrorball using Cellista software (SPT Labtech) and data was plotted using GraphPad Prism 8.

[2] = target: T2, biotinylated human scCD3εγ (scCD3εγ_Avi-Bio): single-chain human CD3ε/CD3γ extracellular domains joined by a … (human, biotinylated in vitro with BirA at the C-terminal Avi-tag); assay: ribosome display selection; crude extract HTRF on recombinant human CD3 target
T2 construct: monomeric; also called recombinant human CD3 target; human CD3 (SPR)
T2 chain: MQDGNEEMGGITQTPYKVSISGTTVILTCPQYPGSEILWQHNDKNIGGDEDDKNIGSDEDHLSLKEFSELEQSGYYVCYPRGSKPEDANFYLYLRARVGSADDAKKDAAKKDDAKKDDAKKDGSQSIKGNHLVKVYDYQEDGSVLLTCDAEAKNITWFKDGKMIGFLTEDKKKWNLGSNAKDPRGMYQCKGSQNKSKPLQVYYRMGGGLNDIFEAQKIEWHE
From the text: Using ribosome display (Hanes, J. and Plückthun, A., PNAS 94, 4937-42, 1997), many ankyrin repeat proteins with binding specificity for human scCD3 were selected from DARPin® libraries similar as described by Binz et al. 2004 (loc. cit.). […] For example, the ankyrin repeat domain of SEQ ID NO: 1 constitutes an amino acid sequence of a selected binding protein comprising an ankyrin repeat domain with binding specificity for scCD3. Individual ankyrin repeat modules from such ankyrin repeat domains with binding specificity to scCD3 are provided, e.g., in SEQ ID NO: 5 to 9.

[3] = target: T1, human CD3 on primary human pan-T cells; assay: Mirrorball laser scanning imaging cytometry on primary human pan-T cells with 600 µM HSA; detection with anti-penta-His Alexa Fluor 488; Median (FL-2 Mean Intensity) [A]
[4] = target: T1, human CD3 on primary human pan-T cells; assay: Mirrorball laser scanning imaging cytometry on primary human pan-T cells, 600 µM HSA, anti-penta-His Alexa Fluor 488 detection
[5] = target: biotinylated human scCD3εγ (scCD3εγ_Avi-Bio): single-chain human CD3ε/CD3γ extracellular domains joined by a 26 amino acid linker, with a C-terminal Avi-tag (human); assay: SPR (ProteOn), biotinylated scCD3εγ on NLC chip, DARPin as analyte 4-64 nM, PBS with 0.005% Tween 20; n = 6
[6] = target: biotinylated human scCD3εγ (scCD3εγ_Avi-Bio): single-chain human CD3ε/CD3γ extracellular domains joined by a 26 amino acid linker, with a C-terminal Avi-tag (human); assay: SPR (ProteOn), biotinylated scCD3εγ on NLC chip, DARPin as analyte 4-64 nM, PBS with 0.005% Tween 20; n = 2
[7] = target: biotinylated human scCD3εγ (scCD3εγ_Avi-Bio): single-chain human CD3ε/CD3γ extracellular domains joined by a 26 amino acid linker, with a C-terminal Avi-tag (human); assay: SPR (ProteOn), biotinylated scCD3εγ on NLC chip, DARPin as analyte 4-64 nM, PBS with 0.005% Tween 20; n = 4

B1: DARPin® protein A (with HSA) (designed binder)
single chain: DLGQKLLEAAWAGQDDEVRELLKAGADVNAKDSQGWTPLHTAAQTGHLEIFEVLLKAGADVNAKDDKGVTPLHLAAALGHLEIVEVLLKAGADVNAQDSWGTTPADLAAKYGHEDIAEVLQKAA
notes: The MOLECULES list holds the half-life extended forms of B, C and D only; also called DARPin® protein A with half-life extension
binding result [1]: no binding (tested: about 3000 nM)

B2: SEQ ID NO 1 (designed binder)
chain: DLGQKLLEAAWAGQDDEVRELLKAGADVNAKDSQGWTPLHTAAQTGHLEIFEVLLKAGADVNAKDDKGVTPLHLAAALGHLEIVEVLLKAGADVNAQDSWGTTPADLAAKYGHEDIAEVLQKAA
notes: also called CD3-specific domain of DARPin® protein #1
binding result [2]: binds

B3: DARPin® protein D with half-life extension (tetraspecific format: His-tag, HSA-specific domain, TAA2-specific domain, TAA3-specific domain, DARPin® protein #4) (designed binder, not shown: large carriers; small tags and cut ends)
chain: DLGQKLLEAAWAGQLDEVRILLKAGADVNAKNSRGWTPLHTAAQTGHLEIFEVLLKAGADVNAKTNKRVTPLHLAAALGHLEIVEVLLKAGADVNARDTWGTTPADLAAKYGHRDIAEVLQKAA
notes: also called half-life extended DARPin® protein D; DARPin® protein #H
EC50 (read off the curve) [1]: ~20 nM

B4: DARPin® protein #4 with TAA2/TAA3 domains (trispecific format: His-tag, TAA2-specific domain, TAA3-specific domain, CD3-specific domain) (designed binder, part only; not given: CD123 and CD33 DARPin domains, not shown: small tags and cut ends)
chain, part: MRGSHHHHHHGSGSPTPTPTTPTPTPTTPTPTPTGSPTPTPTTPTPTPTTPTPTPTDLGQKLLEAAWAGQLDEVRILLKAGADVNAKNSRGWTPLHTAAQTGHLEIFEVLLKAGADVNAKTNKRVTPLHLAAALGHLEIVEVLLKAGADVNARDTWGTTPADLAAKYGHRDIAEVLQKAA
EC50 (read off the curve) [3]: 6 nM
EC50 [4]: 5 to 15 nM
Kd [5]: 6 nM
koff [5]: 0.00041 s⁻¹
kon [5]: 82000 M⁻¹ s⁻¹

B5: DARPin® protein #2 with TAA2/TAA3 domains (trispecific format: His-tag, TAA2-specific domain, TAA3-specific domain, CD3-specific domain) (designed binder, part only; not given: CD123 and CD33 DARPin domains, not shown: small tags and cut ends)
chain, part: MRGSHHHHHHGSGSPTPTPTTPTPTPTTPTPTPTGSPTPTPTTPTPTPTTPTPTPTDLGQKLLEAAWAGQDDEVRELLKAGADVNAKNSRGWTPLHTAAQTGHLEIFEVLLKAGADVNAKDDKGVTPLHLAAALGHLEIVEVLLKAGADVNAQDSWGTTPADLAAKYGHEDIAEVLQKAA
EC50 [4]: 250 to 400 nM
Kd [6]: 35 nM
koff [6]: 0.0015 s⁻¹
kon [6]: 49000 M⁻¹ s⁻¹

B6: DARPin® protein #3 with TAA2/TAA3 domains (trispecific format: His-tag, TAA2-specific domain, TAA3-specific domain, CD3-specific domain) (designed binder, part only; not given: CD123 and CD33 DARPin domains, not shown: small tags and cut ends)
chain, part: MRGSHHHHHHGSGSPTPTPTTPTPTPTTPTPTPTGSPTPTPTTPTPTPTTPTPTPTDLGQKLLEAAWAGQDDEVRELLKAGADVNAKNSRGWTPLHTAAQTGHLEIFEVLLKAGADVNAKNDKRVTPLHLAAALGHLEIVEVLLKAGADVNARDSWGTTPADLAAKYGHQDIAEVLQKAA
EC50 [4]: 50 to 100 nM
Kd [7]: 15 nM
koff [7]: 0.0013 s⁻¹
kon [7]: 89000 M⁻¹ s⁻¹
